Biological target: strep-CsoS1A (hexameric shell protein CsoS1A) (Halothiobacillus neapolitanus) (UniProt P45689)
Test: turbidity

Sequence of UniProt P45689 (P45689 whole entry): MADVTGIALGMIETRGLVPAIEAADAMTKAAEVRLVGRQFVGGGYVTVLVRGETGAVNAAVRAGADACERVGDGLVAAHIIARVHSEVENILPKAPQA

His-CsoS2B (full-length CsoS2, long form) (from UniProt O85041-1 1-869) (natural protein)
fold turbidity with CsoS1A against wtMR: 5 fold
